T1: cynomolgus BLyS (full length, arginine to histidine at position 132) on CHO-K1 cells (cynomolgus, UniProt Q9Y275 1-285 (human entry))
T1 construct: also called cyno BLyS; CHO-K1 cynoBLyS
T1 chain: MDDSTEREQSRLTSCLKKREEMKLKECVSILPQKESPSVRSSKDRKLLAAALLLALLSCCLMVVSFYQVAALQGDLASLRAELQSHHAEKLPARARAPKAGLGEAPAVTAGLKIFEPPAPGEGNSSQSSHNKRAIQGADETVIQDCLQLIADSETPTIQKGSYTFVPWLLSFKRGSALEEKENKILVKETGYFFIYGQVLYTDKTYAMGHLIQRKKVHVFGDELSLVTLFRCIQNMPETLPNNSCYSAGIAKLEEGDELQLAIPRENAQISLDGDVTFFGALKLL

B1: 67A2E1D10 (antibody, V domains shown)
VH: EVQLQQSGAELVKPGASVKLSCTASGFNIKNYYMHWVKQRTEEGLEWIGRIDPEDGETKYAPKFQAKATITADTSSNTAYLQLSSLTSEDTAVYFCARKGYYGNYGAWFAYWGQGTLVTVSA
VL: DIQMTQSPASLSVSVGETVTITCRASEDLYSNLAWYQQKQGKSPQLLVYAATFLADGVPSRFSGSGSGTQYSLKINSLQSEDFGNYYCQHFWGTPPTFGGGTKLEIK
notes: Mouse hybridoma monoclonal antibody purified on Protein G
B2: 78C11D2D12 (antibody, V domains shown)
VH: QVQLQQSGAELVRPGTSVKISCKASGYAFTNYWLGWVKQRPGHGLEWIGDIYPGSGNTYYNEKFKGKATLTADKSSSTAYMQLSSLTSEDSAVFFCAAYLYAMDYWGQGTSVTVSS
VL: QIVLTQSPAIMSASPGEKVTITCSASSSVSYMHWFQQKPGTSPKLWIYSASNLASGVPARFSGSGSGTSYSLTISRMEAEDAATYYCQQRGSYPFTFGSGTKLEIK
notes: as for B1
B3: 35E6F7C3 (antibody, V domains shown)
VH: EVQLQQSGAELVKPGASVKLSCTAAGFNIQDTYIHWVKQRPEQGLEWIGRIDPANANTVYDPKFQGKATITADTSSNTAYLQVSSLTSEDTAVYYCASPVITAGFAYWGQGTLVTVSA
VL: QIVLTQSPAIMSASPGEKVTMTCGASSSVNYVHWYQQKSGTSPKRWIYDTSKLASGVPARFSGSGSGTSYSLTISSMEAEDAATYYCQQWTRSPLTFGAGTKVELK
notes: as for B1
B4: 20D1B6E9E5 (antibody, V domains shown)
VH: EVQLQQSVAELVRPGASVKLSCTASDFNIKNTYIHWVKQRPEQGLEWIGRIDPVNGNTKYAPKFQDKATIIVDTYSNTAYLQLSSLASEDTAVYYCARWPITTIVATDWYFDVWGTGTTVTVSS
VL: DVLMTQTQLALPVRLGEQASISCRSSQSIVNSNGNTYLEWYLQKPGQSPKLLIYKVSNRFSGVPDRFSGSGSGTDFTLKISRVEAEDLGVYYCFQGSHVPWTFGGGTKLEIK
notes: as for B1

Tests used:
mouse BLyS protein = mouse BLyS protein (mouse, UniProt Q9WU72 69-309); assay: cell-based or functional assay
[1] = biological target: T2, human BLyS (full length, arginine to histidine at position 132) on CHO-K1 cells (human, UniProt Q9Y275 1-285); assay: flow cytometry, CHO-K1 hBLyS cells, antibody 0 nM
T2 construct: also called hBLyS; CHO-K1 hBLyS
Protocol: (§1) The medium was aspirated completely, and the cells were rinsed once with PBS buffer (purchased from Invitrogen) and then treated with cell dispersion solution (TrypLE™ Express Enzyme, purchased from Life technology) and collected. The detailed steps are as follows: the cells were rinsed once with PBS buffer, after counting, the cells were diluted to 2×10⁶ cells/ml with PBS buffer, blocked with 2% (w/w) fetal bovine serum and incubated on ice for 30 minutes. 200 μL of which per well was aliquoted into a 96-well FACS plate and centrifuged at 2000 rpm at 4° C., then each 100 μL of the lead antibodies obtained from Embodiment 1 and 2 were aliquoted into each well and incubated on ice for 1 hour. […] After centrifuged and rinsed 3 times with FACS buffer, cells were suspended with 200 μL of FACS buffer and the results were detected and analyzed by FACS (FACS Calibur, purchased from BD). It was shown in Tables 12-13 that the lead antibody could bind to human BLyS protein on the cell surface and the lead antibody could cross-react with cynomolgus BLyS. The data in the table is MFI, the average fluorescence intensity of the cell population.

[2] = biological target: T2, human BLyS (full length, arginine to …); assay: flow cytometry, CHO-K1 hBLyS cells, antibody 13.3 nM
Protocol: as §1

[3] = biological target: T2, human BLyS (full length, arginine to …); assay: flow cytometry, CHO-K1 hBLyS cells, antibody 2.67 nM
Protocol: as §1

[4] = biological target: T2, human BLyS (full length, arginine to …); assay: flow cytometry, CHO-K1 hBLyS cells, antibody 66.7 nM
Protocol: as §1

[5] = biological target: T1, cynomolgus BLyS (full length, arginine …); assay: flow cytometry, CHO-K1 cynoBLyS cells, antibody 0 nM
Protocol: as §1

[6] = biological target: T2, human BLyS (full length, arginine to …); assay: flow cytometry, CHO-K1 hBLyS cells, antibody 0.107 nM
Protocol: as §1

[7] = biological target: T2, human BLyS (full length, arginine to …); assay: flow cytometry, CHO-K1 hBLyS cells, antibody 0.534 nM
Protocol: as §1

[8] = biological target: T2, human BLyS (full length, arginine to …); assay: flow cytometry, CHO-K1 hBLyS cells, antibody 0.0213 nM
Protocol: as §1

[9] = biological target: T2, human BLyS (full length, arginine to …); assay: flow cytometry, CHO-K1 hBLyS cells, antibody 0.00427 nM
Protocol: as §1

[10] = biological target: T1, cynomolgus BLyS (full length, arginine …); assay: flow cytometry, CHO-K1 cynoBLyS cells, antibody 13.3 nM
Protocol: as §1

[11] = biological target: T1, cynomolgus BLyS (full length, arginine …); assay: flow cytometry, CHO-K1 cynoBLyS cells, antibody 2.67 nM
Protocol: as §1

[12] = biological target: T1, cynomolgus BLyS (full length, arginine …); assay: flow cytometry, CHO-K1 cynoBLyS cells, antibody 66.7 nM
Protocol: as §1

[13] = biological target: T1, cynomolgus BLyS (full length, arginine …); assay: flow cytometry, CHO-K1 cynoBLyS cells, antibody 0.107 nM
Protocol: as §1

[14] = biological target: T1, cynomolgus BLyS (full length, arginine …); assay: flow cytometry, CHO-K1 cynoBLyS cells, antibody 0.534 nM
Protocol: as §1

[15] = biological target: T1, cynomolgus BLyS (full length, arginine …); assay: flow cytometry, CHO-K1 cynoBLyS cells, antibody 0.0213 nM
Protocol: as §1

[16] = biological target: T1, cynomolgus BLyS (full length, arginine …); assay: flow cytometry, CHO-K1 cynoBLyS cells, antibody 0.00427 nM
Protocol: as §1

Chain of mouse BLyS protein (Q9WU72 69-309): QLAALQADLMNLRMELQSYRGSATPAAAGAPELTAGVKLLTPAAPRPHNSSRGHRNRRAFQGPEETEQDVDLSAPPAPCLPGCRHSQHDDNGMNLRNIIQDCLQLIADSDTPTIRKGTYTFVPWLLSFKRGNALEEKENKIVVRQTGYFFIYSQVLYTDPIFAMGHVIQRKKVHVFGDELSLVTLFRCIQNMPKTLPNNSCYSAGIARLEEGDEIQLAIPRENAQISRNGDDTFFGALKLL
T2 sequence (Q9Y275 whole entry R130H): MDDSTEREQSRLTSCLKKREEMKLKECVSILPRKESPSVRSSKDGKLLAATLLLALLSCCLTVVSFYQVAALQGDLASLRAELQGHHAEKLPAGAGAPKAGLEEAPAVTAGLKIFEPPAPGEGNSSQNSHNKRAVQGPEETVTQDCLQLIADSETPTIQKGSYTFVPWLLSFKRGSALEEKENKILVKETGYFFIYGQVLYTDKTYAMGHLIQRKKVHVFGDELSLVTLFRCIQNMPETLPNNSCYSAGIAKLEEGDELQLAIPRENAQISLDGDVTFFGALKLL

| mouse B lymphocyte proliferation (OD450 nm), antibody 0 nM (mouse BLyS protein) [OD450 nm] | mouse B lymphocyte proliferation (OD450 nm), antibody 0.000256 nM (mouse BLyS protein) [OD450 nm] | mouse B lymphocyte proliferation (OD450 nm), antibody 0.00128 nM (mouse BLyS protein) [OD450 nm] | mouse B lymphocyte proliferation (OD450 nm), antibody 0.0064 nM (mouse BLyS protein) [OD450 nm] | mouse B lymphocyte proliferation (OD450 nm), antibody 0.032 nM (mouse BLyS protein) [OD450 nm] | mouse B lymphocyte proliferation (OD450 nm), antibody 0.16 nM (mouse BLyS protein) [OD450 nm] | mouse B lymphocyte proliferation (OD450 nm), antibody 0.8 nM (mouse BLyS protein) [OD450 nm] | mouse B lymphocyte proliferation (OD450 nm), antibody 4 nM (mouse BLyS protein) [OD450 nm] | mouse B lymphocyte proliferation (OD450 nm), antibody 20 nM (mouse BLyS protein) [OD450 nm] | mouse B lymphocyte proliferation (OD450 nm), antibody 100 nM (mouse BLyS protein) [OD450 nm] | MFI [1] [MFI] | MFI [2] [MFI] | MFI [3] [MFI] | MFI [4] [MFI] | MFI [5] [MFI] | MFI [6] [MFI] | MFI [7] [MFI] | MFI [8] [MFI] | MFI [9] [MFI] | MFI [10] [MFI] | further results | Binder |
| --- | --- | --- | --- | --- | --- | --- | --- | --- | --- | --- | --- | --- | --- | --- | --- | --- | --- | --- | --- | --- | --- |
| 2120 | 2390 | 2200 | 2110 | 2260 | 2330 | 2490 | 2410 | 2240 | 2070 | 31.2 | 371 | 279 | 432 | 20.3 | 60 | 129 | 37.1 | 33.2 | 738 | MFI [11]: 518 MFI; MFI [12]: 842 MFI; MFI [13]: 76.6 MFI; MFI [14]: 213 MFI; MFI [15]: 35.3 MFI; MFI [16]: 24.7 MFI | B1 |
| 1990 | 2210 | 2380 | 2240 | 2390 | 2410 | 2510 | 2340 | 2470 | 2480 | 31.2 | 336 | 300 | 356 | 20.2 | 132 | 249 | 61.3 | 39.5 | 636 | MFI [11]: 594 MFI; MFI [12]: 664 MFI; MFI [13]: 235 MFI; MFI [14]: 480 MFI; MFI [15]: 106 MFI; MFI [16]: 37.7 MFI | B2 |
| 2160 | 2160 | 2340 | 2520 | 2430 | 2410 | 2530 | 2520 | 2560 | 2490 | 52.4 | 528 | 437 | 609 | 20.3 | 110 | 247 | 54.9 | 39.2 | 1080 | MFI [11]: 953 MFI; MFI [12]: 1130 MFI; MFI [13]: 177 MFI; MFI [14]: 501 MFI; MFI [15]: 66.3 MFI; MFI [16]: 32.6 MFI | B3 |
| 2260 | 2090 | 2170 | 2180 | 2380 | 2120 | 2480 | 2200 | 2240 | 1920 | 31.8 | 498 | 474 | 535 | 19.8 | 194 | 402 | 83.6 | 46.8 | 978 | MFI [11]: 933 MFI; MFI [12]: 1030 MFI; MFI [13]: 349 MFI; MFI [14]: 808 MFI; MFI [15]: 118 MFI; MFI [16]: 50.4 MFI | B4 |
